Reference: ChEMBL document CHEMBL1152703, “Design and synthesis of a beta-lactamase activated 5-fluorouracil prodrug” (Bioorg Med Chem Lett, 2009)

Substrate: O=C(Cc1cccs1)N[C@@H]1C(=O)N2C(C(=O)O)=C(Cn3c(=O)[nH]cc(F)c3=O)CS[C@H]12
Assay: Activity at Enterobacter cloacae P99 beta-lactamase by Michaelis-Menten equation

B1: Beta-lactamase (Enterobacter cloacae), P05364 (protein)
chain: MMRKSLCCALLLGISCSALATPVSEKQLAEVVANTITPLMKAQSVPGMAVAVIYQGKPHYYTFGKADIAANKPVTPQTLFELGSISKTFTGVLGGDAIARGEISLDDAVTRYWPQLTGKQWQGIRMLDLATYTAGGLPLQVPDEVTDNASLLRFYQNWQPQWKPGTTRLYANASIGLFGALAVKPSGMPYEQAMTTRVLKPLKLDHTWINVPKAEEAHYAWGYRDGKAVRVSPGMLDAQAYGVKTNVQDMANWVMANMAPENVADASLKQGIALAQSRYWRIGSMYQGLGWEMLNWPVEANTVVEGSDSKVALAPLPVAEVNPPAPPVKASWVHKTGSTGGFGSYVAFIPEKQIGIVMLANTSYPNPARVEAAYHILEALQ
Km: 95.4 µM | Vmax: 3.21 µmol/min/mg
